Assay results from paper PMC9087378 (Immunity, 2021).
Where no end group is shown, it is not given here. The star is where a group is joined. Biotin = O=C1N[C@H]2[C@H](CS[C@H]2CCCCC(=O)*)N1

T1: Biotinylated junctional peptide NPDP19 (Plasmodium falciparum NF54/3D7)
T1 chain: Biotin-KQPADGNPDPNANPNVDPN

T2: peptide 21 (PfCSP residues 101-115) (Plasmodium falciparum)
T2 chain: NPDPNANPNVDPNAN

T3: peptide 21, biotinylated (Plasmodium falciparum NF54/3D7, also: biotin, position not given here)
T3 chain: NPDPNANPNVDPNAN

T4: peptide NANP5, biotinylated (Plasmodium falciparum, biotin (position not given))
T4 chain: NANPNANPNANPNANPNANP


What was measured:
[1] = target: T1, Biotinylated junctional peptide NPDP19; assay: BLI
[2] = target: T2, peptide 21 (PfCSP residues 101-115); assay: crystal structure
[3] = target: T1, Biotinylated junctional peptide NPDP19; assay: AlphaScreen or HTRF
[4] = target: T3, peptide 21, biotinylated; assay: BLI
[5] = target: T4, peptide NANP5, biotinylated; assay: BLI

| Binder | binding result [2] | binding result [3] | other results |
| --- | --- | --- | --- |
| iGL-CIS43.D3 Fab (Fab, V domains shown) VH: QVHLVQSGAEVKKPGASVKVSCKASGYTFTRYAIHWVRQAPGQRLEWMGWIKGGNGNTRYSQKFQDRVTITRDTSASTAYMELSSLRSEDTAVYYCALLTVITPDDAFDIWGQGTMVTVSS VL: not shown | binds | – | Kd [1]: 1.01 nM |
| iGL-CIS43-HL.K28.m43.151 Fab (Fab, V domains shown) VH: QVHLVQSGAEVKKPGASVKVSCKASGYTFTSYAIHWVRQAPGQRLEWMGWIKGGNGNTRYSQKFQDRVTITRDTSASTAYMELSSLRSEDTAVYYCALLTVITPDDAFDIWGQGTMVTVSS VL: not shown | binds | – | – |
| iGL_Core8 with the reversion I98V in the heavy chain (antibody, V domains shown) VH: QVQLVQSGAEVKKPGASVKVSCKASGYTFTSYAIHWVRQAPGQRLEWMGWIKAGNGNTRYSQKFQGRVTITRDTSASTAYMELSSLRSEDTAVYYCALLTVVTPDDAFDIWGQGTMVTVSS VL: not shown | – | binds | – |
| mature CIS43 Fab (Fab, V domains shown) VH: QVQLVQSGAEVKKPGASVKVSCKASGYTFTSYAIHWVRQAPGQRLEWMGWIKAGNGNTRYSQKFQDRVTITRDTSTTTAYMELSSLRSEDTAVYYCALLTVLTPDDAFDIWGQGTMVTVSS VL: not shown | – | – | binding result [4]: binds; binding result [5]: binds |
| iGL-CIS43-HL.K28.m42.127 Fab (Fab, V domains shown) VH: QVQLVQSGAEVKKPGASVKVSCKASGYTFTSYAIHWVRQAPGQRLEWMGWIKAGNGNTRYSQKFQDRVTITRDTSASTAYMELSSLRSEDTAVYYCALLTVITPDDTFDIWGQGTMVTVSS VL: not shown | binds | – | – |
| iGL_Core8 with the reversion S94T in the light chain (antibody, V domains shown) VH: QVQLVQSGAEVKKPGASVKVSCKASGYTFTSYAIHWVRQAPGQRLEWMGWIKAGNGNTRYSQKFQGRVTITRDTSASTAYMELSSLRSEDTAVYYCALLTVITPDDAFDIWGQGTMVTVSS VL: not shown | – | binds | – |
| iGL_Core8 with the reversion K52N in the heavy chain (antibody, V domains shown) VH: QVQLVQSGAEVKKPGASVKVSCKASGYTFTSYAIHWVRQAPGQRLEWMGWINAGNGNTRYSQKFQGRVTITRDTSASTAYMELSSLRSEDTAVYYCALLTVITPDDAFDIWGQGTMVTVSS VL: not shown | – | binds | – |
| iGL_Core8 with the reversion I34M in the heavy chain (antibody, V domains shown) VH: QVQLVQSGAEVKKPGASVKVSCKASGYTFTSYAMHWVRQAPGQRLEWMGWIKAGNGNTRYSQKFQGRVTITRDTSASTAYMELSSLRSEDTAVYYCALLTVITPDDAFDIWGQGTMVTVSS VL: not shown | – | binds | – |
| iGL_Core8 with the reversion R58K in the heavy chain (antibody, V domains shown) VH: QVQLVQSGAEVKKPGASVKVSCKASGYTFTSYAIHWVRQAPGQRLEWMGWIKAGNGNTKYSQKFQGRVTITRDTSASTAYMELSSLRSEDTAVYYCALLTVITPDDAFDIWGQGTMVTVSS VL: not shown | – | binds | – |
